Tests used:
[1] = molecular target: T1, recombinant ICAM-1 (UniProt P05362 28-480); test: ELISA on recombinant ICAM-1, luminescence
T1 construct: also called recombinant ICAM-1 protein

[2] = molecular target: T2, intercellular cell adhesion molecule-1 (ICAM-1) on the surface of human cells (human, UniProt P05362 28-532); test: flow cytometry on ARH-77 cells, % of maximal cell ICAM-1 binding
T2 construct: whole, on cells; Endogenous antigen; also called CD54
T2 sequence (P05362 28-532): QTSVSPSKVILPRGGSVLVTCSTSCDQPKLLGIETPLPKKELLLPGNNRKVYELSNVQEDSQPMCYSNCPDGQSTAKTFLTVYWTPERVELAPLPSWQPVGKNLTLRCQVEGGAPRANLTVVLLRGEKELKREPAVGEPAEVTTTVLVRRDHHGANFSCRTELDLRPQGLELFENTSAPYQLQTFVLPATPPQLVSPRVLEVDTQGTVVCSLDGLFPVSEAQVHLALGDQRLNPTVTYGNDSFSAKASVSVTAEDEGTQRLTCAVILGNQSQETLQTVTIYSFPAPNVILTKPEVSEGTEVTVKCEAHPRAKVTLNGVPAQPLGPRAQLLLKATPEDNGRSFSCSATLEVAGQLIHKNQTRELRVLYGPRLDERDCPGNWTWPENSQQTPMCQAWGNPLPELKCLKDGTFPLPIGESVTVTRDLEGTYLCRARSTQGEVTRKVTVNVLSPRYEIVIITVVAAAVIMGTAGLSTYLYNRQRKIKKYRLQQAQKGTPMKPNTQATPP

T1 sequence (P05362 28-480 limits assumed): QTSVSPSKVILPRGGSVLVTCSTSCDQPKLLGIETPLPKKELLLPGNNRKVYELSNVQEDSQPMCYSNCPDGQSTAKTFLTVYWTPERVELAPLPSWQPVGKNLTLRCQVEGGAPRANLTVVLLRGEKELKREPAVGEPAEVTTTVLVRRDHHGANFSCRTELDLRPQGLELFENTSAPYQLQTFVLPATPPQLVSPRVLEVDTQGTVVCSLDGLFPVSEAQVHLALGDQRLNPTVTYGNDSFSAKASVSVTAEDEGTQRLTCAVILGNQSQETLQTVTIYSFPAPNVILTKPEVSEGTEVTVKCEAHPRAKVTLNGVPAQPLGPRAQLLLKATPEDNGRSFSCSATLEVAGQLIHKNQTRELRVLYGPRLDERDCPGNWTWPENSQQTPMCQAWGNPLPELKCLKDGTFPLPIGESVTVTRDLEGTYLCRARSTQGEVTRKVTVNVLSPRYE

B1: BI-505 IgG4 (antibody, V domains shown)
VH: EVQLLESGGGLVQPGGSLRLSCAASGFTFSNAWMSWVRQAPGKGLEWVAFIWYDGSNKYYADSVKGRFTISRDNSKNTLYLQMNSLRAEDTAVYYCARYSGWYFDYWGQGTLVTVSS
VL: QSVLTQPPSASGTPGQRVTISCTGSSSNIGAGYDVHWYQQLPGTAPKLLIYDNNNRPSGVPDRFSGSKSGTSASLAISGLRSEDEADYYCQSYDSSLSAWLFGGGTKLTVLG
EC50 (read off the curve) [1]: ~0.2 nM
EC50 (read off the curve) [2]: ~0.05 mg/L

B2: BI-505 IgG1 N297Q (antibody, V domains shown)
VH: EVQLLESGGGLVQPGGSLRLSCAASGFTFSNAWMSWVRQAPGKGLEWVAFIWYDGSNKYYADSVKGRFTISRDNSKNTLYLQMNSLRAEDTAVYYCARYSGWYFDYWGQGTLVTVSS
VL: QSVLTQPPSASGTPGQRVTISCTGSSSNIGAGYDVHWYQQLPGTAPKLLIYDNNNRPSGVPDRFSGSKSGTSASLAISGLRSEDEADYYCQSYDSSLSAWLFGGGTKLTVLG
notes: also called Fc-mut; BI-505N297Q
EC50 (read off the curve) [1]: ~0.2 nM
EC50 (read off the curve) [2]: ~0.05 mg/L
